Results from patent publication US20210238276A1 (INTEGRAL MOLECULAR, published 2021).
Substitutions are numbered along the chain they refer to.

What was measured:
Test in all cases: flow cytometry, alanine-scan library in HEK-293T, with cytochalasin B
hsGLUT4 E315A = target: T1, hsGLUT4 E315A (human, UniProt P14672 1-509)
T1 sequence: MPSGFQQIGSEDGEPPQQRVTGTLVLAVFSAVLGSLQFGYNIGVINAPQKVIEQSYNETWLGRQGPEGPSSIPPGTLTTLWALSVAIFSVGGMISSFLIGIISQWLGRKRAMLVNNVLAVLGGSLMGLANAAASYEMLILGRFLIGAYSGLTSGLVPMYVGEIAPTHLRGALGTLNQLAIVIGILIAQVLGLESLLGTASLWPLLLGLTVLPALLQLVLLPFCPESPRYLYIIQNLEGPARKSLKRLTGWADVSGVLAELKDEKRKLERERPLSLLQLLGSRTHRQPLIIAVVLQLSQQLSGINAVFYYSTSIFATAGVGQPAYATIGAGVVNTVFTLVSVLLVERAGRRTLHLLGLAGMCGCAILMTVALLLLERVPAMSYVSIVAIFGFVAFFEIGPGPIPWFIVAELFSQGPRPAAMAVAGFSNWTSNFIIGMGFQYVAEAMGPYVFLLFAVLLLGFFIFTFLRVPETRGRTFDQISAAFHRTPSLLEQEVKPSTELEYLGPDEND
Description: (§1) Because of the state-dependence of the isolated MAbs, we next wished to understand the mechanism by which each MAb could recognize GLUT4 in its different conformations. The residues required for binding of each MAb were determined using shotgun mutagenesis comprehensive alanine scanning (Davidson E & Doranz B J (2014) A High-Throughput Shotgun Mutagenesis Approach to Mapping B-cell Antibody Epitopes. Immunology, which is hereby incorporated by reference in its entirety). All residues of hsGLUT4 were individually mutated to alanine, with existing alanines changed to serines. Mutations were obtained for 508 of the 509 residues of GLUT4 (excluding the initiating methionine). The entire mutation library was transfected into human HEK-293T cells in a 384-well array format (one clone per well) and assessed for immunoreactivity using high-throughput flow cytometry.
(§2) HEK-293T cells were transfected by CaPO₄ with plasmids in 6-well culture plates (Falcon) at 750,000 cells/well. At 48 hours post transfection, cells were stained with anti-V5 and anti-GLUT4 MAbs (purified scFv, 2 μg/ml) followed by biotinylated goat anti-mouse or human antibody (1:500) and streptavidin-PerCP (1:500). Fluorescence was detected using an Intellicyt high-throughput flow cytometer (HTFC; Intellicyt, Albuquerque, N. Mex.). For cell permeabilization, cells were treated with saponin at 0.1% in PBS for 20 minutes. To discriminate intact (live) and permeabilized (dead) cells without the use of detergent, propidium iodide (PI) was added to HEK-293T cells at 1 ug/ml just prior to flow cytometry. Where indicated, cytochalasin B (Sigma) was used at a final concentration of 10 uM and phloretin (Sigma) was used at a final concentration of 100 uM, each added in 10% NGS for 30 minutes prior to antibody staining as well as included with the primary antibody.

hsGLUT4 L155A = target: T2, hsGLUT4 L155A (human, UniProt P14672 1-509)
T2 sequence: T1 sequence with L155A, A315E
Description: as §1, §2

hsGLUT4 M112A = target: T3, hsGLUT4 M112A (human, UniProt P14672 1-509)
T3 sequence: T1 sequence with M112A, A315E
Description: as §1, §2

hsGLUT4 F307A = target: T4, hsGLUT4 F307A (human, UniProt P14672 1-509)
T4 sequence: T1 sequence with F307A, A315E
Description: as §1, §2

B1: AB102 (Fc fusion)
scFv: ALTQPSSVSANLGGTVKITCSGGGSYGYGWYQQKSPGSAPVTVIYSNDQRPSDIPSRFSGSKSGSTATLTITGVRAEDEAIYYCGSTDSDYVGIFGAGTTLTVLGQSSRSSGGGGSSGGGGSAVTLDESGGGLQTPGGTLSLVCKASGFDFSSYATIWVRQAPGKGLEWVAGISGTGTGSSTGYAPAVKGRATISRDNGQSTVRLQLNNLRAEDTGSYFCAKSTGYGDSWIYPDSIDAWGHGTEVIVSS
notes: also called MAb AB102; not shown: Fc fragment of human IgG1, cloned in frame with the scFv
Question: Which results are given for B1?
Answer: % of binding to wild type GLUT4 (hsGLUT4 E315A): 76%; % of binding to wild type GLUT4 (hsGLUT4 L155A): 26%; % of binding to wild type GLUT4 (hsGLUT4 M112A): 23%; % of binding to wild type GLUT4 (hsGLUT4 F307A): 22%
